According to the supplement of paper PMC10567573:

B1: TRAF3IP2 (parent)
chain: FMEKRNQWLVSQLSAASPDTGHDS

Variants of: B1
Test: protein stability index of a GFP-peptide fusion (GPS, HEK-293T) (PSI 1-6); higher = more stable
Settings: c terminus: a fixed tail appended
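Also: lentivirally expressed fusions sorted by FACS into six bins by GFP to DsRed ratio, PSI derived from sequencing read proportions per bin multiplied by bin number.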

Protein stability index of substitutions, site by site:
F1: T 4.2; S 4.37; Q 4.88; W 3.17; Y 2.84; R 4.48; V 4.55
R5: C 2.25; P 1.36; E 3.5; A 1.97; G 1.71; Q 2.67; F 1.83; K 2.38; D 2.99; T 2.16; M 2.94; L 1.79; N 1.98; I 1.68; V 1.97; Y 1.89; S 2.28; W 3.1; H 2.62
E3: F 2.94; N 1.97; D 2.24; Y 3.02; T 3.83; I 2.32; L 2.75; M 2.28; R 1.05; K 2.91; C 1.58; V 1.95; H 1.71; Q 2.27; S 1.77; W 1.81; P 1.93; A 3
L9: R 2.08; A 2.19; S 3.15; D 4.31; M 2.36; N 3.44; V 1.71; C 2.41; Y 2.9; P 3.83; G 3.34; I 2.9; K 2.7; T 2.44; F 2.73; E 4.27; H 3.82; Q 3.03
Q12: F 1.94; L 1.65; R 2.33; W 1.45; T 1.7; C 1.85; E 3.33; K 1.77; M 1.68; N 2.81; I 1.89; P 2.71; D 3.21; H 3.89; A 2.04; V 1.53; S 1.77; Y 1.98
S11: K 2.7; P 2.9; E 3.27; D 3.79; V 2.4; M 1.71; L 1.46; A 1.94; C 2.22; R 3.3; H 2.63; W 3.25; T 2.19; I 2.06; G 3.32; N 3.18; Q 2.89; Y 2.64
S17: Y 1.71; V 1.88; M 2.1; T 3.03; K 2.41; R 2.46; H 2.73; W 1.57; C 2.98; I 2.19; G 2.47; F 1.88; N 2.35; L 2.54; D 2.94; E 2.88; Q 2.63; P 2.66
D19: P 2.33; H 2.2; E 1.91; L 1.92; Y 1.41; V 1.92; F 1.8; W 1.52; C 2.45; G 1.7; M 2.57; A 3.69; N 2.4; T 3.02; I 2.52; K 2.28; R 2.9; S 2.43
P18: V 2.54; S 1.49; D 2.88; H 2.08; G 2.38; F 1.9; K 2.42; R 2.77; M 2.22; W 1.67; N 2.5; A 2.35; Q 2.09; Y 2.7; I 2.69; T 2.94; C 2.22; E 2.62; L 1.93
A16: H 2.47; Y 1.87; P 2.14; R 1.54; M 2.06; I 2.26; K 2.09; L 1.38; E 2.62; Q 2.6; D 2.29; V 2.26; G 3.03; T 1.96; C 1.96; N 2.9; S 2.39; F 2.9
A15: C 2.38; S 1.79; H 2.33; M 1.7; F 1.83; W 2.29; D 2.47; R 3.45; P 2.75; E 2.73; V 1.83; Q 2.34; I 1.77; T 2.7; G 2.71; K 3.53; L 2.3; N 2.21
S14: N 2.58; T 2.77; W 1.89; Y 1.63; F 1.93; C 2.15; E 2.74; L 1.66; A 2.34; H 2.48; I 2.08; M 2.34; R 2.39; G 2.3; V 1.65; D 3.29; K 2.41; Q 2.57; P 2.53
T20: A 2.32; C 2.65; E 1.75; H 2.38; D 2.94; F 1.97
L13: S 3.17; E 3.2; C 1.91; V 2.61; G 2.47; A 3.73; I 2.17; T 2.67; K 2.84; M 2.48; D 3.45; W 2.45; R 3.01; Q 2.5; Y 2.35; P 3.13; F 2.48
W8: Y 4.21; P 4.58; A 4.75; M 4.72; K 4.57; E 4.74; G 5.09; L 4.45; S 4.93; C 4.71; T 5.2; I 4.25; F 3.95; H 4.43; R 4.68; Q 4.63; N 5.08; D 5.06; V 4.79
N6: R 2.44; H 2.05; K 2.42; L 1.51; Q 1.91; W 1.29; A 2.24; P 3.03; V 2.02; I 1.42; Y 1.56; S 2.2; G 3.08; C 1.77; D 2.73; M 2.06; T 1.83
K4: E 3.69; M 2.51; I 2.6; N 2.38; S 2.24; P 2.36; H 2.16; Q 2.57; L 2.26; F 2.35; Y 2.17; A 1.71; T 2.52; D 3; R 2.54; G 1.89; W 1.3
M2: K 4.28; I 1.25; S 2.2; P 1.42; T 2.55; L 2.46; Y 2.97; D 3.06; Q 3.27; H 1.58; N 3.29; C 2.94; E 4.75; W 3.41; R 3.56; F 3.6
Q7: W 2.86; T 1.79; I 2.35; H 2.26; S 1.64; E 2.72; K 3.36; M 1.8; A 1.02; C 1.87; P 1.58; D 3.31; V 1.81; N 2.65; Y 2.88; R 2.98
V10: Y 2.5; F 1.29; G 3.14; E 4.34; Q 2.93; H 3.38; A 3.61; T 3.21; D 4.18; K 3.41; P 2.46; N 3.46; M 2.74; I 2.12; C 1.99; L 2.29; R 3.28; S 3.5
